Test: Standard protocol for determination of kcat and KM (continuous spectrophotometric assay, Acetyl CoA hydrolysis at 235 nm)
Assay type: biochemical
Settings: purified protein, about 23° C., 0.2 mM acetyl CoA; for Kcat: 20 mM HEPES pH 6.8, 10% ethylene glycol; for Km: pH 6.8, glyphosate 0.125 to 10 mM
Method in brief: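 KM from initial rates over 0.125–10 mM glyphosate, fitted by Lineweaver-Burke transformation of Michaelis-Menten; kcat/KM computed as kcat divided by KM. Continuous spectrophotometric read of acetyl-CoA hydrolysis at 235 nm.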

B1: SEQ ID NO: 341: GAT polypeptide (protein)
chain: MIEVKPINAEDTYEIRHRILRPNQPLEACMYETDLLGGTLHLGGYYQGKLISIASFHKAEHSGLEGEEQYQLRGMATLEGYREQKAGSTLIRHAEELLRKKGADLLWCNARTSVSGYYEKLGFSEQGEVYDIPPIGPHILMYKKLT
modifications: 16A1
notes: GAT polypeptide
B1 gave a Kcat of 0.173 s⁻¹ and a Km of 2900 µM.

B2: SEQ ID NO: 342: GAT polypeptide (protein)
chain: MIDVKPINAEDTYEIRHRILRPNQPLEACKYETDLLGGTFHLGGYYQGKLISIASFHQAEHSELEGQKQYQLRGMATLEGYREQKAGSTLIRHAEELLRKKGADLLWCNARTSVSGYYEKLGFSEQGEVYDIPPIGPHILMYKKLT
modifications: 16H3
notes: GAT polypeptide
Molecule B2 has a Kcat of 0.0583 s⁻¹ and a Km of 2900 µM.

B3: SEQ ID NO: 348: GAT polypeptide (protein)
chain: MIEVKPINAEDTYEIRHRILRPNQPLEACMYETDLLGGTFHLGGYYRGKLISIASFHQAEHSELEGQKQYQLRGMATLEGYREQKAGSTLIRHAEELLRKKGADLLWCNARTSVSGYYEKLGFSEQGEVYDIPPIGPHILMYKKLT
modifications: 20F2
notes: GAT polypeptide
In the case of B3, the Kcat is reported as 0.065 s⁻¹ and the Km is reported as 1900 µM.

B4: SEQ ID NO: 351: GAT polypeptide (protein)
chain: MIEVKPINAEDTYEIRHRILRPNQPLEACKYETDLLGGTFHLGGYYRDRLISIASFHQAEHSELEGQKQYQLRGMATLEGYREQKAGSTLIRHAEELLRKKGADLLWCNARTSVSGYYKKLGFSEQGEVYDIPPIGPHILMYKKLT
modifications: 24C1
notes: GAT polypeptide
With B4 the Kcat was 0.0283 s⁻¹ and the Km was 900 µM.

B5: SEQ ID NO: 344: GAT polypeptide (protein)
chain: MIEVKPINAEDTYEIRHRILRPNQPLEACKYETDLLGGTFHLGGYYRGKLISIASFHKAEHSELEGQKQYQLRGMATLEGYREQKAGSTLIRHAEELLRKKGADLLWCNARTSASGYYEKLGFSEQGEVYDIPPIGPHILMYKKLA
modifications: 18D6
notes: GAT polypeptide
Molecule B5 has a Kcat of 0.16 s⁻¹ and a Km of 1200 µM.

B6: SEQ ID NO: 353: GAT polypeptide (protein)
chain: MIEVKPINAEDTYEIRHRILRPNQPLEACKYETDLLGGTFHLGGYYRGKLISIASFHNAEHSELEGQKQYQLRGMATLEGYREQKAGSTLIRHAEELLRKKGADLLWCNARTSASGYYEKLGFSEQGEVYDIPPIGPHILMYKKLA
modifications: 24E7
notes: GAT polypeptide
Work on B6 yielded a Kcat of 0.148 s⁻¹ and a Km of 900 µM.

B7: SEQ ID NO: 346: GAT polypeptide (protein)
chain: MIEVKPINAEDTYEIRHCILRPNQPLEACMYETDLLGGTFHLGGYYQGKLISIASFHKAEHSELEGQKQYQLRGMATLEGYREQKAGSTLIRHAEELLRKKGADLLWCNARTSVSGYYKKLGFSEQGEVYDIPPIGPHILMYKKLT
modifications: 19D5
notes: GAT polypeptide
Work on B7 yielded a Kcat of 0.0367 s⁻¹ and a Km of 1700 µM.

B8: SEQ ID NO: 347: GAT polypeptide (protein)
chain: MIEVKPINAEDTYEIRHRILRPNQPLEACMYETDLLGGTFHLGGYYQGKLISIASFHNAEHSELEGQKQYQLRGMATLEGYREQKAGSTLIRHAEELLRKKGVDLLWCNARTSVSGYYKKLGFSEQGGIYDIPPIGPHILMYKKLA
modifications: 20A12
notes: GAT polypeptide
B8 showed a Kcat of 0.0467 s⁻¹ and a Km of 1100 µM.

B9: SEQ ID NO: 350: GAT polypeptide (protein)
chain: MIEVKPINAEDTYEIRHRILRPNQPLEACMYETDLLGGTFHLGGYYQGKLISIASFHKAEHSELEGQKQYQLRGMATLEGYREQKAGSTLIRHAEELLRKKGADLLWCNARTSASGYYEKLGFSEQGEVYDIPPIGPHILMYKKLA
modifications: 23H11
notes: GAT polypeptide
In the case of B9, the Kcat is reported as 0.118 s⁻¹ and the Km is reported as 2200 µM.

B10: SEQ ID NO: 349: GAT polypeptide (protein)
chain: MIEVKPINAEDTYEIRHRILRPNQPLEACKYETDLLGGAFHLGGYYQGKLISIASFHQAEHSELEGQKQYQLRGMATLEGYREQKAGSTLIRHAEELLRKKGADLLWCNARTSVSGYYKKLGFSEQGEVYDIPPIGPHILMYKKLT
modifications: 21E11
notes: GAT polypeptide
B10 showed a Kcat of 0.0183 s⁻¹ and a Km of 700 µM.

B11: SEQ ID NO: 352: GAT polypeptide (protein)
chain: MIEVKPINAEDTYEIRHRILRPNQPLEACMYETDLLGGTFHLGGYYRGKLISIASFHQAEHSELEGQKQYQLRGMATLEGYREQKAGSTLIRHAEELLRKKGADLLWCNARISVSGYYKKLGFSEQGGVYDIPPIGPHILMYKKLA
modifications: 24C6
notes: GAT polypeptide
Work on B11 yielded a Kcat of 0.045 s⁻¹ and a Km of 1300 µM.

B12: SEQ ID NO: 354: GAT polypeptide (protein)
chain: MIEVKPINAEDTYEIRHRILRPNQPLEACMYETDLLGGTFHLGGYYRDRLISIASFHQAEHSELEGQKQYQLRGMATLEGYREQKAGSTLIRHAEELLRKKGADLLWCNARTSASGYYEKLGFSEQGEVYDIPPIGPHILMYKKLT
modifications: 2_8C3
notes: GAT polypeptide
Work on B12 yielded a Kcat of 0.413 s⁻¹ and a Km of 1500 µM.

B13: SEQ ID NO: 343: GAT polypeptide (protein)
chain: MIEVKPISAEDTYEIRHRILRPNQPLEACMYETDLLGGAFHLGGYYQGKLISIASFHQAEHSELEGQKQYQLRGMATLEGYREQKAGSTLIRHAEELLRKKGADLLWCNARTSVSGYYEKLGFSEQGEVYDIPPIGPHILMYKKLT
modifications: 17C12
notes: GAT polypeptide
B13 gave a Kcat of 0.0533 s⁻¹ and a Km of 1400 µM.

B14: SEQ ID NO: 356: GAT polypeptide (protein)
chain: MIEVKPINAEDTYEIRHRILRPNQPLEACMFETDLLGGAFHLGGYYQGKLISIASFHQAEHSELEGQKQYQLRGMATLEGYREQKAGSTLIRHAEELLRKKGADLLWCNARTSVSGYYKKLGFSEQGEVYDIPPIGPHILMYKKLT
modifications: 30G8
notes: GAT polypeptide
B14 showed a Kcat of 0.17 s⁻¹ and a Km of 1600 µM.

B15: SEQ ID NO: 265: GAT polypeptide (protein)
chain: MIEVKPINAEDTYEIRHRILRPNQPLEACKYETDLLGSTFHLGGYYRGKLISIASFNQAEHPELEGQKQYQLRGMATLEGYREQKAGSTLIRHAEELLRKKGADLLWCNARTSASGYYKKLGFSEQGEVYDTPPVGPHILMYKKLT
modifications: 14_2A5
notes: GAT polypeptide
In the case of B15, the Kcat is reported as 4.68 s⁻¹ and the Km is reported as 1600 µM.

B16: SEQ ID NO: 266: GAT polypeptide (protein)
chain: MIEVKPINAEDTYEIRHRILRPNQPLEACKYETDLLRGAFHLGGYYRGKLVSIASFHQAEHPELEGQKQYQLRGMATLEGYREQKAGSTLIRHAEELLRKKGADLLWCNARTSASGYYKKLGFSEQGEVYDTPPTGPHILMYKKLT
modifications: 14_2C1
notes: GAT polypeptide
B16 gave a Kcat of 2.223 s⁻¹ and a Km of 3100 µM.

B17: SEQ ID NO: 345: GAT polypeptide (protein)
chain: MIEVKPINAEDTYEIRHRILRPNQPLEACKYETDLLGGTFHLGGYYRGKLICIASFHQAEHSELEGQKQYQLRGMATLEGYREQKAGSTLIRHAEELLRKKGADLLWCNARTSVRGYYEKLGFSEQGGVYDIPPIGPHILMYKKLA
modifications: 19C6
notes: GAT polypeptide
B17 gave a Kcat of 0.0367 s⁻¹ and a Km of 1100 µM.

B18: SEQ ID NO: 355: GAT polypeptide (protein)
chain: MIEVKPINAEDTYEIRHRILRPNQPLEACKYETDLLGGTFHLGGYYQGKLISTASFHQAGHSELEGQKQYQLRGMATLEGYRERKAGSTLIRHAEELLRKKGADLLWCNARISASGYYKKLGFSEQGGVYDIPPIGPHILMYKKLT
modifications: 2H3
notes: GAT polypeptide
In the case of B18, the Kcat is reported as 0.268 s⁻¹ and the Km is reported as 900 µM.
